In US20210238262A1 one finds micro-neutralization (MN50) in Vero cells, IC50 data, which are given here for 1 substance.

The target of the assay is ZIKV PR (Puerto Rican strain, PRVABC59) virus (Zika virus strain PRVABC59). Nature of the assay: cell-based or functional assay.

In the case of Z004 (antibody), the micro-neutralization (MN50) in Vero cells, IC50 turned out to be 1.4 ng/mL.
